According to patent publication US20210106652A1, “Immunogenic Compounds For Treatment Of Fibrosis, Autoimmune Diseases And Inflammation” (ENTEROME S.A., priority 2018, published 2021):

How the values were obtained:
HLA-A*0201 = biological target: T1, HLA-A*0201 (Homo sapiens, UniProt P04439, D140Y/D185E/D98H/E176V/E277Q/G131W/G231S/I119V/I121R/I166T/I218V/L300P/L318F/N151K/N90K/P208A/P217A/Q86G/Q94H/R138H/R169H/T345S); test: Affinity of the peptide to HLA-A*0201 on T2 cell line (FACS, anti-HLA-A2); format: binding; conditions: for In vitro binding affinity: Example 5, relative affinity = concentration of peptide inducing 20% of HLA-A*0201 expression / that of reference peptide HIV pol 589-597, lower = higher affinity; for Concentration of peptide that induces 20% of HLA-A2 expression: Example 7; for binding to HLA-A*0201 (in words): T2 cells
T1 construct: human tumoral cell T2 which expresses the HLA-A*0201 molecule; endogenous in cells; host or cells: T2 cells (human, TAP1/2 negative)
Text: The experimental protocol is similar to the one that was validated for peptides presented by the HLA-A*0201 (Tourdot et al., A general strategy to enhance immunogenicity of low-affinity HLA-A2.1-associated peptides: implication in the identification of cryptic tumor epitopes. Eur J Immunol. 2000 December; 30(12):3411-21). Affinity measurement of the peptides is achieved with the human tumoral cell T2 which expresses the HLA-A*0201 molecule, but which is TAP1/2 negative and incapable of presenting endogenous peptides.
(§1) T2 cells (2.10^5 cells per well) are incubated with decreasing concentrations of peptides from 100 μM to 0.1 μM in a AIMV medium supplemented with 100 ng/μl of human β2m at 37° C. for 16 hours. Cells are then washed two times and marked with the anti-HLA-A2 antibody coupled to PE (clone BB7.2, BD Pharmagen).
The analysis is achieved by FACS (Guava Easy Cyte).
(§2) For each peptide concentration, the geometric mean of the labelling associated with the peptide of interest is substracted from background noise and reported as a percentage of the geometric mean of the […] labelling obtained for the reference peptide HIV pol 589-597 at a concentration of 100 μM. The relative affinity is then determined as follows:
relative affinity=concentration of each peptide inducing 20% of expression of HLA-A*0201/concentration of the reference peptide inducing 20% of expression of HLA-A*0201.
The experimental protocol was similar to the one that was validated for peptides presented by the HLA-A*0201 (Tourdot et al., A general strategy to enhance immunogenicity of low-affinity HLA-A2.1-associated peptides: implication in the identification of cryptic tumor epitopes. Eur J Immunol. 2000 December; 30(12):3411-21).
as §1, with “were” for “are”
The analysis was achieved by FACS (Guava Easy Cyte).
as §2, with “was subtracted” for “is substracted”
The experimental protocol, materials and methods correspond to those outlined in Example 3, with the only difference that the above mentioned (poly)peptides were used.
The experimental protocol, materials and methods correspond to those outlined in Example 2, with the only difference that the above mentioned (poly)peptides were used.

HHD DR3 mice = test: IFN-γ ELISpot immunogenicity and cross-reactivity in HHD DR3 (HLA-A2 transgenic) mice; format: in vivo, mouse; conditions: 100 μg s.c. d0, d14 with helper peptide (DR3) and IFA; challenge with either IL13RA2-L or IL13RA2-H
Method: The (poly)peptide of the present invention IL13RA2-L (SEQ ID NO: 279) and the corresponding human reference peptide IL13RA2-H (SEQ ID NO: 263) were tested in distinct groups of male and female HHD DR3 mice expressing human HLA-A2 and HLA-DR3 MHC and lacking the murine H-2 class I and class II MHCs. Groups of 5 mice (male and female) were subcutaneously injected on days 0 and 14 with 100 μg of IL13RA2-L (SEQ ID NO: 279) or IL13RA2-H (SEQ ID NO: 263), 150 μg of helper peptide (DR3) and IFA. On day 21, the mice were euthanized and splenocytes were prepared and stimulated in vitro with IL13RA2-L or the human corresponding peptide IL13RA2-H to assess their capacity to secrete IFN- as assessed by ELISpot. Concanavalin A (ConA) was used as a positive control.

[1] = biological target: T2, HLA-A*0201 molecule expressed on human T2 cells (human); test: T2 cell assay; relative affinity against reference peptide HIV pol 589-597
T2 construct: MHC class I molecule on T2 cells; also called HLA-A2

1F9M: tryptophan at position 1 of SEQ ID No 263 substituted by phenylalanine and isoleucine at position 9 substituted by methionine (FLPFGFILM)
In vitro binding affinity (HLA-A*0201): 2.62

1I9A: tryptophan at position 1 of SEQ ID No 263 substituted by isoleucine and isoleucine at position 9 substituted by alanine (ILPFGFILA)
In vitro binding affinity (HLA-A*0201): 2.22

ALPFGFILV [1A9V]
In vitro binding affinity (HLA-A*0201): 3.06 | Concentration of peptide that induces 20% of HLA-A2 expression (HLA-A*0201): 36.5 µM

CLYTFLIST [IL13RA2-H2]
binding to HLA-A*0201 (in words) (HLA-A*0201): do not bind to or show much lower affinity

FLPFGFILPV [IL13RA2-L]
Concentration of peptide that induces 20% of HLA-A2 expression (HLA-A*0201): 3.2 µM | immune response (IFN-γ ELISpot, spot forming cells) after immunisation (HHD DR3 mice): strongly immunogenic

FLPFGFILV [IL13RA2-B]
Concentration of peptide that induces 20% of HLA-A2 expression (HLA-A*0201): 2.9 µM | binding to HLA-A*0201 (in words) (HLA-A*0201): bind strongly

WLPFGFILI [IL13RA2-H]
binding to HLA-A*0201 (in words) (HLA-A*0201): do not bind to or show much lower affinity | immune response (IFN-γ ELISpot, spot forming cells) after immunisation (HHD DR3 mice): does not induce an immune response

YLYTFLIST [IL13RA2-B2]
binding to HLA-A*0201 (in words) (HLA-A*0201): bind strongly

FLPFGFILPV (also called IL13R2A-L) [IL13RA2-L (SEQ ID NO: 279)]
In vitro binding affinity [1]: 0.3

B1: IL13RA2-B (FLPFGFILV, SEQ ID NO: 31) (peptide)
peptide: FLPFGFILV
notes: also called IL13RA2-B pAg; candidate peptide
In vitro binding affinity [1]: 0.3

B2: peptide 1A9V (SEQ ID NO: 263 with tryptophan 1 to alanine and isoleucine 9 to valine) (peptide)
peptide: ALPFGFILV
notes: Analogue described by Eguchi et al. 2006; also called comparative peptide 1A9V
In vitro binding affinity [1]: 3.6
